Data reported in IntAct's records for PubMed 31515488.

B1: Keratin, type II cytoskeletal 79 (Homo sapiens), Q5XKE5 (parent)
chain: MRSSVSRQTYSTKGGFSSNSASGGSGSQARTSFSSVTVSRSSGSGGGAHCGPGTGGFGSRSLYNLGGHKSISVSVAGGALLGRALGGFGFGSRAFMGQGAGRQTFGPACPPGGIQEVTVNQSLLTPLHVEIDPEIQRVRTQEREQIKTLNNKFASFIDKVRFLEQQNKVLETKWALLQEQGQNLGVTRNNLEPLFEAYLGSMRSTLDRLQSERGRLDSELRNVQDLVEDFKNKYEDEINKHTAAENEFVVLKKDVDAAYMGRMDLHGKVGTLTQEIDFLQQLYEMELSQVQTHVSNTNVVLSMDNNRNLDLDSIIAEVKAQYELIAQRSRAEAEAWYQTKYEELQVTAGKHGDNLRDTKNEIAELTRTIQRLQGEADAAKKQCQQLQTAIAEAEQRGELALKDAQKKLGDLDVALHQAKEDLTRLLRDYQELMNVKLALDVEIATYRKLLESEESRMSGECPSAVSISVTGNSTTVCGGGAASFGGGISLGGSGGATKGGFSTNVGYSTVKGGPVSAGTSILRKTTTVKTSSQRY
B2: Protein LDOC1 (Homo sapiens), O95751 (parent)
chain: MVDELVLLLHALLMRHRALSIENSQLMEQLRLLVCERASLLRQVRPPSCPVPFPETFNGESSRLPEFIVQTASYMLVNENRFCNDAMKVAFLISLLTGEAEEWVVPYIEMDSPILGDYRAFLDEMKQCFGWDDDEDDDDEEEEDDY
partner: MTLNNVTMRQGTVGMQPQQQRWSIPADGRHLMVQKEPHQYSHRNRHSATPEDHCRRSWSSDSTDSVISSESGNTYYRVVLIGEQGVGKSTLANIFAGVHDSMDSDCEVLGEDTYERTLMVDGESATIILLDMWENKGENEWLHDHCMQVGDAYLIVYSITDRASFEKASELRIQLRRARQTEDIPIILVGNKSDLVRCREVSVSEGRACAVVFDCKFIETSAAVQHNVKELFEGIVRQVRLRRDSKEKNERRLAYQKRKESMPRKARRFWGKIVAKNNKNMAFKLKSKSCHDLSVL
B3: Tuftelin-interacting protein 11 (Homo sapiens), Q9UBB9 (parent)
chain: MSLSHLYRDGEGRIDDDDDERENFEITDWDLQNEFNPNRQRHWQTKEEATYGVWAERDSDDERPSFGGKRARDYSAPVNFISAGLKKGAAEEAELEDSDDEEKPVKQDDFPKDFGPRKLKTGGNFKPSQKGFAGGTKSFMDFGSWERHTKGIGQKLLQKMGYVPGRGLGKNAQGIINPIEAKQRKGKGAVGAYGSERTTQSMQDFPVVDSEEEAEEEFQKELSQWRKDPSGSKKKPKYSYKTVEELKAKGRISKKLTAPQKELSQVKVIDMTGREQKVYYSYSQISHKHNVPDDGLPLQSQQLPQSGKEAKAPGFALPELEHNLQLLIDLTEQEIIQNDRQLQYERDMVVNLFHELEKMTEVLDHEERVISNLSKVLEMVEECERRMQPDCSNPLTLDECARIFETLQDKYYEEYRMSDRVDLAVAIVYPLMKEYFKEWDPLKDCTYGTEIISKWKSLLENDQLLSHGGQDLSADAFHRLIWEVWMPFVRNIVTQWQPRNCDPMVDFLDSWVHIIPVWILDNILDQLIFPKLQKEVENWNPLTDTVPIHSWIHPWLPLMQARLEPLYSPIRSKLSSALQKWHPSDSSAKLILQPWKDVFTPGSWEAFMVKNIVPKLGMCLGELVINPHQQHMDAFYWVIDWEGMISVSSLVGLLEKHFFPKWLQVLCSWLSNSPNYEEITKWYLGWKSMFSDQVLAHPSVKDKFNEALDIMNRAVSSNVGAYMQPGARENIAYLTHTERRKDFQYEAMQERREAENMAQRGIGVAASSVPMNFKDLIETKAEEHNIVFMPVIGKRHEGKQLYTFGRIVIYIDRGVVFVQGEKTWVPTSLQSLIDMAK
partner: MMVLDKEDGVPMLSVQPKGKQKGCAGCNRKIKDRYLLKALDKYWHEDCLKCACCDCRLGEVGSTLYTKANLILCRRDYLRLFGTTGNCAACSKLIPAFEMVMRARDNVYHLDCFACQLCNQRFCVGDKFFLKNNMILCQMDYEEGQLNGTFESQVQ
B4: Ropporin-1A (Homo sapiens), Q9HAT0 (parent)
chain: MAQTDKPTCIPPELPKMLKEFAKAAIRVQPQDLIQWAADYFEALSRGETPPVRERSERVALCNRAELTPELLKILHSQVAGRLIIRAEELAQMWKVVNLPTDLFNSVMNVGRFTEEIEWLKFLALACSALGVTITKTLKIVCEVLSCDHNGGSPRIPFSTFQFLYTYIAKVDGEISASHVSRMLNYMEQEVIGPDGIITVNDFTQNPRVQLE
B5: Fas-activated serine/threonine kinase (Homo sapiens), Q14296-1 (parent)
chain: MRRPRGEPGPRAPRPTEGATCAGPGESWSPSPNSMLRVLLSAQTSPARLSGLLLIPPVQPCCLGPSKWGDRPVGGGPSAGPVQGLQRLLEQAKSPGELLRWLGQNPSKVRAHHYSVALRRLGQLLGSRPRPPPVEQVTLQDLSQLIIRNCPSFDIHTIHVCLHLAVLLGFPSDGPLVCALEQERRLRLPPKPPPPLQPLLRGGQGLEAALSCPRFLRYPRQHLISSLAEARPEELTPHVMVLLAQHLARHRLREPQLLEAIAHFLVVQETQLSSKVVQKLVLPFGRLNYLPLEQQFMPCLERILAREAGVAPLATVNILMSLCQLRCLPFRALHFVFSPGFINYISGTPHALIVRRYLSLLDTAVELELPGYRGPRLPRRQQVPIFPQPLITDRARCKYSHKDIVAEGLRQLLGEEKYRQDLTVPPGYCTDFLLCASSSGAVLPVRTQDPFLPYPPRSCPQGQAASSATTRDPAQRVVLVLRERWHFCRDGRVLLGSRALRERHLGLMGYQLLPLPFEELESQRGLPQLKSYLRQKLQALGLRWGPEGG
B6: Splicing factor 45 (Homo sapiens), Q96I25 (parent)
chain: MSLYDDLGVETSDSKTEGWSKNFKLLQSQLQVKKAALTQAKSQRTKQSTVLAPVIDLKRGGSSDDRQIVDTPPHVAAGLKDPVPSGFSAGEVLIPLADEYDPMFPNDYEKVVKRQREERQRQRELERQKEIEEREKRRKDRHEASGFARRPDPDSDEDEDYERERRKRSMGGAAIAPPTSLVEKDKELPRDFPYEEDSRPRSQSSKAAIPPPVYEEQDRPRSPTGPSNSFLANMGGTVAHKIMQKYGFREGQGLGKHEQGLSTALSVEKTSKRGGKIIVGDATEKDASKKSDSNPLTEILKCPTKVVLLRNMVGAGEVDEDLEVETKEECEKYGKVGKCVIFEIPGAPDDEAVRIFLEFERVESAIKAVVDLNGRYFGGRVVKACFYNLDKFRVLDLAEQV
B7: Alpha-ketoglutarate-dependent dioxygenase alkB homolog 3 (Homo sapiens), Q96Q83 (parent)
chain: MEEKRRRARVQGAWAAPVKSQAIAQPATTAKSHLHQKPGQTWKNKEHHLSDREFVFKEPQQVVRRAPEPRVIDREGVYEISLSPTGVSRVCLYPGFVDVKEADWILEQLCQDVPWKQRTGIREDITYQQPRLTAWYGELPYTYSRITMEPNPHWHPVLRTLKNRIEENTGHTFNSLLCNLYRNEKDSVDWHSDDEPSLGRCPIIASLSFGATRTFEMRKKPPPEENGDYTYVERVKIPLDHGTLLIMEGATQADWQHRVPKEYHSREPRVNLTFRTVYPDPRGAPW
partner: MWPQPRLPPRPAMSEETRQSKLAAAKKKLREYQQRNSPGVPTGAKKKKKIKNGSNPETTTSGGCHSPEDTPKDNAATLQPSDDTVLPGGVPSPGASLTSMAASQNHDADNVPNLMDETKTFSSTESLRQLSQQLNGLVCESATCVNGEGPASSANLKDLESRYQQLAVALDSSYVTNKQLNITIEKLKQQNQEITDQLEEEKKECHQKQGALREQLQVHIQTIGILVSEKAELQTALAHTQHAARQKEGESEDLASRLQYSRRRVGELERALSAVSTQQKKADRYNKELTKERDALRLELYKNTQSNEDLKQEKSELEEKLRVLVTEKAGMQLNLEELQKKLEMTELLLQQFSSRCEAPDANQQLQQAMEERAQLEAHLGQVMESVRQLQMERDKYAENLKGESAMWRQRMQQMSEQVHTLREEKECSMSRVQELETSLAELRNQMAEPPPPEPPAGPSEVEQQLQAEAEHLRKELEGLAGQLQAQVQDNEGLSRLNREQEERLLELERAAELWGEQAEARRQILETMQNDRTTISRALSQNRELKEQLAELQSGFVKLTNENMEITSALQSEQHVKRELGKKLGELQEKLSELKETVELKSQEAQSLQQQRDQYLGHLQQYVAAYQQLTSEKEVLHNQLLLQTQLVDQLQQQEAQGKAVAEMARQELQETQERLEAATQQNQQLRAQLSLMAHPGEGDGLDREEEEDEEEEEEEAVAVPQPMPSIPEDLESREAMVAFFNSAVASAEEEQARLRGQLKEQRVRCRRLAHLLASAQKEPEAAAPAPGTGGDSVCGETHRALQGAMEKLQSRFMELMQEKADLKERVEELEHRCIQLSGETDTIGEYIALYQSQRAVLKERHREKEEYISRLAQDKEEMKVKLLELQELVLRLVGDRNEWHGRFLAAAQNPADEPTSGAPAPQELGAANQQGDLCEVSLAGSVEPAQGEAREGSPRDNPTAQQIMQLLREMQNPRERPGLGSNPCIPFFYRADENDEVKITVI
B8: Caspase-2 (Homo sapiens), P42575 (parent)
chain: MAAPSAGSWSTFQHKELMAADRGRRILGVCGMHPHHQETLKKNRVVLAKQLLLSELLEHLLEKDIITLEMRELIQAKVGSFSQNVELLNLLPKRGPQAFDAFCEALRETKQGHLEDMLLTTLSGLQHVLPPLSCDYDLSLPFPVCESCPLYKKLRLSTDTVEHSLDNKDGPVCLQVKPCTPEFYQTHFQLAYRLQSRPRGLALVLSNVHFTGEKELEFRSGGDVDHSTLVTLFKLLGYDVHVLCDQTAQEMQEKLQNFAQLPAHRVTDSCIVALLSHGVEGAIYGVDGKLLQLQEVFQLFDNANCPSLQNKPKMFFIQACRGDETDRGVDQQDGKNHAGSPGCEESDAGKEKLPKMRLPTRSDMICGYACLKGTAAMRNTKRGSWYIEALAQVFSERACDMHVADMLVKVNALIKDREGYAPGTEFHRCKEMSEYCSTLCRHLYLFPGHPPT

Variants of: B1
Details: with KRT15, P19012
Chain of KRT15, P19012 (P19012 whole entry): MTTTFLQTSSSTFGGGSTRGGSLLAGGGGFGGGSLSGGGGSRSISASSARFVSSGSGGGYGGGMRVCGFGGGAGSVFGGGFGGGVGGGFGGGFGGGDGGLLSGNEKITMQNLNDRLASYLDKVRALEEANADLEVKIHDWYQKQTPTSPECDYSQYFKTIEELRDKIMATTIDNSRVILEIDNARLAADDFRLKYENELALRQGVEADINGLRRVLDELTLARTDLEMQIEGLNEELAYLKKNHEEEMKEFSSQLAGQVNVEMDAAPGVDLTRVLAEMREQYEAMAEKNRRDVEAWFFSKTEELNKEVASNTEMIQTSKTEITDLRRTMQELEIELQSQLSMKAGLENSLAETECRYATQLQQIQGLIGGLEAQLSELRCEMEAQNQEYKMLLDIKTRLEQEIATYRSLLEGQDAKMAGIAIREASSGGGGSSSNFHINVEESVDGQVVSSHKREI
For R161Q, the “effect of a mutation on the interaction” value was “with no effect”.

Variants of: B2
Details: with gem_human GEM
With L12H the “effect of a mutation on the interaction” value was “disrupting interaction strength”.

Variants of: B3
Details: with rbtn1_human LMO1, P25800
With R8Q the “effect of a mutation on the interaction” value was “with no effect”.
For S688L, the “effect of a mutation on the interaction” value was “with no effect”.

Variants of: B4
Details: with lnx1_human LNX1, Q8TBB1
Chain of lnx1_human LNX1, Q8TBB1 (Q8TBB1 whole entry): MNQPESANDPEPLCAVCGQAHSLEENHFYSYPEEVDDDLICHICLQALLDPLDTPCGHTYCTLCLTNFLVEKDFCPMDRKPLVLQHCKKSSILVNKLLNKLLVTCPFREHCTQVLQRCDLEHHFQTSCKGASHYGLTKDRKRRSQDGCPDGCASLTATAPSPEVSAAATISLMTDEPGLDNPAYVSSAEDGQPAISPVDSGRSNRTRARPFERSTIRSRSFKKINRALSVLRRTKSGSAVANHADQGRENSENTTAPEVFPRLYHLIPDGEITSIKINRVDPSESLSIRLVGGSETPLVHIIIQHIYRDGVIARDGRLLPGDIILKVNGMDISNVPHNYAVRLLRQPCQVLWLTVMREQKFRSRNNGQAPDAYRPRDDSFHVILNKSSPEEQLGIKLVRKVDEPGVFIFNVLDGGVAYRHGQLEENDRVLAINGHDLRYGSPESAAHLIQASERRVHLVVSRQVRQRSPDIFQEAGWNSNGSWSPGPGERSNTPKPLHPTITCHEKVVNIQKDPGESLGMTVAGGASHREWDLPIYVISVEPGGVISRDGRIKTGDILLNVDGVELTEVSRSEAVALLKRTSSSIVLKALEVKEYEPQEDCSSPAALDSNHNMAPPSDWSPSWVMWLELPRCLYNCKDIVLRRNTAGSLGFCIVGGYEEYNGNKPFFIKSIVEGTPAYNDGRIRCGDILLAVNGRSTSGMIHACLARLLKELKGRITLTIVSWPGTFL
With C62W the “effect of a mutation on the interaction” value was “with no effect”.

Variants of: B4
Details: with hnrl1_human HNRNPUL1, Q9BUJ2
Chain of hnrl1_human HNRNPUL1, Q9BUJ2 (Q9BUJ2 whole entry): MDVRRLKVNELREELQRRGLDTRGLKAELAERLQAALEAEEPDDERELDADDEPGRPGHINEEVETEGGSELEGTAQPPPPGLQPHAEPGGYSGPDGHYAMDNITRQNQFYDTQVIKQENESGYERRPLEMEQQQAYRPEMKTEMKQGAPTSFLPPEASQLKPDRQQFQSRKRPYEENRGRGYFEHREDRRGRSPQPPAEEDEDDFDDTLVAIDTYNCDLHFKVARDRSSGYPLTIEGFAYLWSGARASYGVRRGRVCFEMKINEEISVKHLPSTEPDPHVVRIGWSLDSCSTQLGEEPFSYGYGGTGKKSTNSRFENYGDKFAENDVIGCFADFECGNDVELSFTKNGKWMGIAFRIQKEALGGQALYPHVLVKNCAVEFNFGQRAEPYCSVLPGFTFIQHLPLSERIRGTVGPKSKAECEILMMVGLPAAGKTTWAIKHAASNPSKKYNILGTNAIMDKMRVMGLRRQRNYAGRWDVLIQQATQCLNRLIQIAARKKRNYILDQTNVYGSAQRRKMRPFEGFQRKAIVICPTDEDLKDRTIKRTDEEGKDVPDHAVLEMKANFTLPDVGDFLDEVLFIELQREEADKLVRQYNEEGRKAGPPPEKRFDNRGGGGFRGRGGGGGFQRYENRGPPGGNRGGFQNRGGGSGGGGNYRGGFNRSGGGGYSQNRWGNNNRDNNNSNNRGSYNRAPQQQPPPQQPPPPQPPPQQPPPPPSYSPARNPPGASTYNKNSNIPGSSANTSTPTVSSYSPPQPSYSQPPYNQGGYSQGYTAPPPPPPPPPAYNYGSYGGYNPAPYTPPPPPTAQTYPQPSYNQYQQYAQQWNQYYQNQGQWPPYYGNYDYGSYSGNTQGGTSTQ
C62W was tested, and the “effect of a mutation on the interaction” value was “with no effect”.

Variants of: B4
Details: with aapk1_human PRKAA1, Q13131
Chain of aapk1_human PRKAA1, Q13131 (Q13131 whole entry, looked up): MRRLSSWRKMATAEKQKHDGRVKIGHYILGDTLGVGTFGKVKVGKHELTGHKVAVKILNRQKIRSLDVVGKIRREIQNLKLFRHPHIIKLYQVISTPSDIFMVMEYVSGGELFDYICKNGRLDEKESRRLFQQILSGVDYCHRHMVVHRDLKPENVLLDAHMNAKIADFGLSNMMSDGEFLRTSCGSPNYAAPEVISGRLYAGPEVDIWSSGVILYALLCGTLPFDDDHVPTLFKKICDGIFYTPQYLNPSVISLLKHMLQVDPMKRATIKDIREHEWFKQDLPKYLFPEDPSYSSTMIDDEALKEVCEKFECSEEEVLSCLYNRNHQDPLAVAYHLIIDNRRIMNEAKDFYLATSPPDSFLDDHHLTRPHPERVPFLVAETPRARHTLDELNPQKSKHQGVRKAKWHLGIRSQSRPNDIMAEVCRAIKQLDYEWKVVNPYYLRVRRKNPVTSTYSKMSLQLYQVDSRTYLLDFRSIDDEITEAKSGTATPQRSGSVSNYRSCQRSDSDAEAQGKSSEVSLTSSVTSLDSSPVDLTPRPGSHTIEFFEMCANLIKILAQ
With C62W the “effect of a mutation on the interaction” value was “with no effect”.

Variants of: B5
Details: with wipf1_human WIPF1, O43516
Chain of wipf1_human WIPF1, O43516 (O43516 whole entry): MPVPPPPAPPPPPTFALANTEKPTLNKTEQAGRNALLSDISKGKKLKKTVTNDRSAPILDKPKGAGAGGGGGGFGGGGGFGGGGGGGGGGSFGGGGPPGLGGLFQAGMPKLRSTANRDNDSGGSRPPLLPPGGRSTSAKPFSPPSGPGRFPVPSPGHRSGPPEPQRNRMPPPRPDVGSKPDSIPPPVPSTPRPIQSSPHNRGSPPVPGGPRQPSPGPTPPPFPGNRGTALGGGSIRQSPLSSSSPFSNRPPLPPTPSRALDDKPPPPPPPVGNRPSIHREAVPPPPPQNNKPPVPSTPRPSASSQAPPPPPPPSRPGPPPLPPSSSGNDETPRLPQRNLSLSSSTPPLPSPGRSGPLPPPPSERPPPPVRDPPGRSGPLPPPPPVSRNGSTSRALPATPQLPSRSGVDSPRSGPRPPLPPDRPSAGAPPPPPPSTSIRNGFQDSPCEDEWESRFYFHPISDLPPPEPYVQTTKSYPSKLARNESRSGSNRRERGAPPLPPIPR
V424L was tested, and the “effect of a mutation on the interaction” value was “disrupting interaction strength”.

Variants of: B5
Details: with mdfi_human MDFI
With V424L the “effect of a mutation on the interaction” value was “disrupting interaction strength”.

Variants of: B6
Details: with sat1_human SAT1, P21673
Chain of sat1_human SAT1, P21673 (P21673 whole entry): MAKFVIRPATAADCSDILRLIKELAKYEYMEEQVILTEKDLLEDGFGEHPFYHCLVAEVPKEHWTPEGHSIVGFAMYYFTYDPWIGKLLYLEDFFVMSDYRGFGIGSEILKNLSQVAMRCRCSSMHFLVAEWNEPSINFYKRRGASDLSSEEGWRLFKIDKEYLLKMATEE
With T224I the “effect of a mutation on the interaction” value was “with no effect”.

Variants of: B7
Details: with goga2_human GOLGA2, Q08379
With G39C the “effect of a mutation on the interaction” value was “with no effect”.

Variants of: B8
Details: with cradd_human CRADD
With R155H the “effect of a mutation on the interaction” value was “with no effect”.
